{"source": "paper doi:10.1101/2023.10.08.561411", "about": "“Semi-synthetic nanobody-ligand conjugates exhibit tunable signaling properties and enhanced transcriptional outputs at neurokinin receptor-1” (bioRxiv, 2023)", "molecules": {"B1": {"name": "G3SP_(6–11), SP_(6–11) with an N-terminal triglycine extension (peptide)", "peptide": "GGGQFFGLM-NH2"}, "B2": {"name": "Nb6e, biotin-labeled (VHH)", "VHH": "QVQLQESGGGLVQPGGSLRLSCAASGFVFENSAMAWYRQAPGKERELIAVIGTTFIKLAESVKGRFTISRDNAKSTVYLQMNNLKPEDTAVYYCSKSGAYWGQGTQVTVSS", "notes": "sortase A recognition motif at the C-terminus (LPETGG in the methods); if by sortagging, the His tag would be lost; source: E. coli BL21(DE3), purified (nickel-NTA, size exclusion chromatography)"}, "B3": {"name": "Nb_(alfa), biotin-labeled (VHH)", "VHH": "EVQLQESGGGLVQPGGSLRLSCTASGVTISALNAMAMGWYRQAPGERRVMVAAVSERGNAMYRESVQGRFTVTRDFTNKMVSLQMDNLKPEDTAVYYCHVLEDRVDSFHDYWGQGTQVTVSS", "notes": "as for B2"}, "B4": {"name": "NbBC2, biotin-labeled (VHH)", "VHH": "QVQLVESGGGLVQPGGSLTLSCTASGFTLDHYDIGWFRQAPGKEREGVSCINNSDDDTYYADSVKGRFTIFMNNAKDTVYLQMNSLKPEDTAIYYCAEARGCKRGRYEYDFWGQGTQVTVSS", "notes": "as for B2"}, "B5": {"name": "NbGFP, biotin-labeled (negative control nanobody that targets GFP) (VHH)", "VHH": "QVQLQESGGALVQPGGSLRLSCAASGFPVNRYSMRWYRQAPGKEREWVAGMSSAGDRSSYEDSVKGRFTISRDDARNTVYLQMNSLKPEDTAVYYCNVNVGFEYWGQGTQVTVSS", "notes": "nanobody NbGFP against GFP; sortase A recognition motif at the C-terminus (LPETGG in the methods); if by sortagging, the His tag would be lost; source: E. coli BL21(DE3), purified (nickel-NTA, size exclusion chromatography)"}}, "key": {"[1]": {"molecular_target": "epitope-tagged neurokinin-1 receptor (NK1R) with three epitope tags (alfa, 6e, BC2) inserted into the extracellular N-terminus (UniProt P25103)"}, "[2]": {"molecular_target": "epitope-tagged neurokinin-1 receptor (NK1R) with three epitope tags (alfa, 6e, BC2) inserted into the extracellular N-terminus (UniProt P25103)", "remark": "listed apart in the source"}, "[3]": {"molecular_target": "epitope-tagged neurokinin-1 receptor (NK1R) with three epitope tags (alfa, 6e, BC2) inserted into the extracellular N-terminus (UniProt P25103)", "remark": "listed apart in the source"}, "[4]": {"molecular_target": "epitope-tagged neurokinin-1 receptor (NK1R) with three epitope tags (alfa, 6e, BC2) inserted into the extracellular N-terminus (UniProt P25103)", "remark": "listed apart in the source"}, "[5]": {"molecular_target": "T1, neurokinin-1 receptor wild-type, lacking epitope tags (Homo sapiens, UniProt P25103)", "T1 construct": "also called NK1R WT; NK1R wild-type; source: HEK293, stably transfected clonal line, on live cells", "T1 sequence (P25103 whole entry)": "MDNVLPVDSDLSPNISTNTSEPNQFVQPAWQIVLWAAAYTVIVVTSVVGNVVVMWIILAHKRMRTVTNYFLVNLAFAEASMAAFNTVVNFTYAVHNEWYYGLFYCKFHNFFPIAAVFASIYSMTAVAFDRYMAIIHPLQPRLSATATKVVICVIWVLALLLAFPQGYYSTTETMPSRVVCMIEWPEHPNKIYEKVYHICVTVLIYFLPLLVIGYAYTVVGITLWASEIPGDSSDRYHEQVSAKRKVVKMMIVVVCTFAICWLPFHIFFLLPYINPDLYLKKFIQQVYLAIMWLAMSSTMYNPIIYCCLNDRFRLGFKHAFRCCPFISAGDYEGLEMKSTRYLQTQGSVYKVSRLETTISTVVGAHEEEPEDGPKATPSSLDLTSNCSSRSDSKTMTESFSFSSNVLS", "test": "flow cytometry on cells; live HEK293 cells expressing the receptor, on ice 20 min in PBS with 2% BSA with biotin-functionalized nanobodies (0.1 pM – 1 μM); detected with APC-streptavidin; median fluorescence intensity", "details": "one partner purified"}}, "note": "Ends that are not written are not given here."}
{"molecule": "NbGFP-NKA conjugate (negative control)", "values": [{"measurement": "Gq activation (TRUPATH BRET), full efficacy; reduction in potency (EC50) relative to the comparator peptide", "setting": "[1]", "result": "< 6", "unit": "fold"}]}
{"molecule": "NbGFP-SP_(6–11) conjugate (negative control)", "values": [{"measurement": "Gq activation (TRUPATH BRET), full efficacy; reduction in potency (EC50) relative to the comparator peptide G3SP (6–11)", "setting": "[1]", "result": "> 60", "unit": "fold"}, {"measurement": "Gq activation (TRUPATH BRET); difference in EC50 relative to SP (6–11)", "setting": "[1]", "result": "< 4", "unit": "fold"}]}
{"molecule": "Nb_(alfa)-NKA conjugate", "values": [{"measurement": "Gq-mediated transcriptional output (luciferase reporter, 35 nM, 17 hours), fold against G3NKA", "setting": "[2]", "result": "> 2", "unit": "fold"}, {"measurement": "Gq activation (TRUPATH BRET), full efficacy; reduction in potency (EC50) relative to the comparator peptide", "setting": "[1]", "result": "< 6", "unit": "fold"}, {"measurement": "Gs-mediated transcription (luciferase reporter, 35 nM, 17 hours), fold against NKA", "setting": "[3]", "result": "> 5", "unit": "fold"}]}
{"molecule": "Nb_(alfa)-SP_(6–11) conjugate", "values": [{"measurement": "Gq activation (TRUPATH BRET), full efficacy; reduction in potency (EC50) relative to the comparator peptide G3SP (6–11)", "setting": "[1]", "result": "> 60", "unit": "fold"}, {"measurement": "Gq activation (TRUPATH BRET); difference in EC50 relative to SP (6–11)", "setting": "[1]", "result": "< 4", "unit": "fold"}]}
{"molecule": "SP_(6–11), truncated version of Substance P (peptide)", "values": [{"measurement": "signaling through the Gq pathway (TRUPATH BRET), EC50", "setting": "[4]", "result": 27.5, "unit": "nM"}]}
{"molecule": "B1", "values": [{"measurement": "signaling through the Gq pathway (TRUPATH BRET), EC50", "setting": "[4]", "result": 0.3, "unit": "nM"}]}
{"molecule": "B2", "values": [{"measurement": "binding result", "setting": "[5]", "result": "no binding (tested: 1 μM)"}]}
{"molecule": "B3", "values": [{"measurement": "binding result", "setting": "[5]", "result": "no binding (tested: 1 μM)"}]}
{"molecule": "B4", "values": [{"measurement": "binding result", "setting": "[5]", "result": "no binding (tested: 1 μM)"}]}
{"molecule": "B5", "values": [{"measurement": "binding result", "setting": "[5]", "result": "no binding (tested: 1 μM)"}]}
